# The supplement of paper PMC10126150
# ± gives the standard deviation of the averaged measurements.
# System: ATP
# Test: switch fluorescence ratio, 500 uM ATP over buffer (Cy3 cluster intensity, sum of 5 cycles each) (fold (ratio)); higher = stronger signal-on switching upon ATP binding; sequences stand for … in TCGTCGGCAGCGTCAGATGTGTATAAGAGACAGTTTTTTTTTTTTTTTTTTTTTTTTT…TC
# Details: aptamer strand: ATP DNA aptamer (quencher-CACCTGGGGGAGTATTGCGGAGGAAGG + anchor), 100 nM annealed; ATP concentration: 500 uM
# Procedure, shortened: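 For every switch-domain sequence, the fluorescence ratio is the mean of per-cluster values, each being summed target-cycle Cy3 intensity over summed buffer-cycle Cy3 intensity. Clusters outside 100-1000 RFU were excluded. On a modified Illumina MiSeq flow-cell, the Cy3-labelled switching-strand clusters were annealed to 100 nM quencher-labelled ATP aptamer, imaged in selection buffer and then after 15 min with 500 uM ATP at 22 °C. Five such cycles were run, with NaOH stripping and re-annealing between them.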
# 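Further: ATP exposure 15 min at 22 °C before imaging.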
sequence,measurement,value
GGTAGAGGGC,switch fluorescence ratio,0.973 ± 0.061
GACCGGGAGC,switch fluorescence ratio,0.995 ± 0.011
TTGATGTTGG,switch fluorescence ratio,0.992 ± 0.048
ATACGGGGCT,switch fluorescence ratio,1.03 ± 0.027
TTTTAATTG,switch fluorescence ratio,0.961 ± 0.038
TATGGGGGAT,switch fluorescence ratio,1.03 ± 0.093
GCGTCAGCGG,switch fluorescence ratio,0.981 ± 0.02
CTGTTTGAGA,switch fluorescence ratio,1.02 ± 0.018
GCGCTAGCAG,switch fluorescence ratio,0.99 ± 0.018
TTTAAATGGT,switch fluorescence ratio,1 ± 0.027
TTGTTGGTAC,switch fluorescence ratio,1.15 ± 0.23
AAGATCGGGG,switch fluorescence ratio,0.972 ± 0.049
GAGAGGGTGT,switch fluorescence ratio,1.05 ± 0.081
CAGGGGTCTA,switch fluorescence ratio,0.9957 ± 0.004
AAATGAAAAC,switch fluorescence ratio,0.98 ± 0.037
TGTATAAAGG,switch fluorescence ratio,1.009 ± 0.0069
GAAGTTGTCG,switch fluorescence ratio,1.02 ± 0.02
AAGGGCGGGT,switch fluorescence ratio,1.03 ± 0.014
AAGCCAGCTC,switch fluorescence ratio,1.02 ± 0.037
TCCTTAAAAA,switch fluorescence ratio,1.1 ± 0.06
GTCATTAACT,switch fluorescence ratio,1.02 ± 0.027
GCTGTAAATT,switch fluorescence ratio,0.982 ± 0.019
TTCTGACGGT,switch fluorescence ratio,1.12 ± 0.037
ATGTTATCGA,switch fluorescence ratio,1.008 ± 0.0074
CTTTCAAGGT,switch fluorescence ratio,1.006 ± 0.0032
CGGCCATTTG,switch fluorescence ratio,0.993 ± 0.059
TATGAATCCG,switch fluorescence ratio,1 ± 0.063
TAAATTTAGG,switch fluorescence ratio,0.989 ± 0.02
TTTGTTTAAG,switch fluorescence ratio,0.973 ± 0.012
TAAGGGCTGA,switch fluorescence ratio,1.01 ± 0.011
GCGGATGCGT,switch fluorescence ratio,1.03 ± 0.048
TGGGGGTGGA,switch fluorescence ratio,1.01 ± 0.046
GGCACGTGGG,switch fluorescence ratio,0.999 ± 0.017
CTTTGCATTA,switch fluorescence ratio,1.7035 ± 0.00023
GGGGGGCGGT,switch fluorescence ratio,0.989 ± 0.015
TTTCCGGCGT,switch fluorescence ratio,1.03 ± 0.023
CGGGCGGGGC,switch fluorescence ratio,1.04 ± 0.028
ATTATCTTGG,switch fluorescence ratio,1.05 ± 0.064
AATGTTGTGC,switch fluorescence ratio,0.9381 ± 0.0049
ATTCAAGTT,switch fluorescence ratio,0.999 ± 0.034
GGTTTTAGCT,switch fluorescence ratio,0.997 ± 0.016
ATGATCGATG,switch fluorescence ratio,0.979 ± 0.026
TTTGAATAGA,switch fluorescence ratio,0.992 ± 0.019
TAATTAGAGG,switch fluorescence ratio,1.01 ± 0.027
GGGGTGGTGT,switch fluorescence ratio,1.03 ± 0.027
AATCATCGGT,switch fluorescence ratio,0.999 ± 0.027
AATGGGGACA,switch fluorescence ratio,0.995 ± 0.051
TCGTTCCGGT,switch fluorescence ratio,1.02 ± 0.026
TGGGATTCGG,switch fluorescence ratio,1.03 ± 0.092
GGGGGAAGCG,switch fluorescence ratio,0.9685 ± 0.0034
AGCCGAAAGG,switch fluorescence ratio,1.024 ± 0.0025
GAAGCAAAGG,switch fluorescence ratio,2.04 ± 0.074
ATCACTCTTT,switch fluorescence ratio,1.02 ± 0.058
ACGCCGGCTT,switch fluorescence ratio,1.272 ± 0.0019
TCAGTCCTAT,switch fluorescence ratio,1 ± 0.026
AAGCGAGGTT,switch fluorescence ratio,0.991 ± 0.021
GGTGTTTGGA,switch fluorescence ratio,0.986 ± 0.0099
AAAGAGAGTT,switch fluorescence ratio,0.9964 ± 0.0065
CTGAGGTTAT,switch fluorescence ratio,1.04 ± 0.038
CATAGATAGG,switch fluorescence ratio,0.992 ± 0.011
TTTCTGTTGC,switch fluorescence ratio,0.9887 ± 0.0047
CTATGGGGGA,switch fluorescence ratio,1.04 ± 0.02
CTATGGCTGG,switch fluorescence ratio,0.981 ± 0.017
ATTAGGTAAT,switch fluorescence ratio,0.999 ± 0.011
ACCGGGTTGC,switch fluorescence ratio,1.064 ± 0.008
GGAATCAAGG,switch fluorescence ratio,1.02 ± 0.035
ATCGGGACGG,switch fluorescence ratio,0.9829 ± 0.0029
AGTCTGTAGT,switch fluorescence ratio,0.981 ± 0.036
ATTACGTATT,switch fluorescence ratio,1.103 ± 0.0095
TTGATGCGGA,switch fluorescence ratio,0.971 ± 0.05
CCACGAAGAT,switch fluorescence ratio,1.061 ± 0.0037
ATGAAAGCAC,switch fluorescence ratio,1.09 ± 0.061
ATTTTTTTGT,switch fluorescence ratio,1 ± 0.026
AAGTTGTGGT,switch fluorescence ratio,1.01 ± 0.023
GACTGGGGAT,switch fluorescence ratio,0.995 ± 0.025
TTCGGAAGTT,switch fluorescence ratio,0.966 ± 0.021
GCAATGGTAC,switch fluorescence ratio,2.21 ± 0.098
CATGTTGCGA,switch fluorescence ratio,1.04 ± 0.023
TATAATATAT,switch fluorescence ratio,1 ± 0.029
TGTTGGGGTA,switch fluorescence ratio,1.03 ± 0.06
AGCCTGGGCT,switch fluorescence ratio,0.99 ± 0.014
GGCGAGTTT,switch fluorescence ratio,1 ± 0.021
GAAATAGTTT,switch fluorescence ratio,1.02 ± 0.021
TGGTTCGGGT,switch fluorescence ratio,1.03 ± 0.036
AGGTCGGACA,switch fluorescence ratio,1.006 ± 0.0094
CGATGAGGGG,switch fluorescence ratio,0.967 ± 0.03
GCCTCGTTGG,switch fluorescence ratio,0.98 ± 0.012
TTTATGAATG,switch fluorescence ratio,0.9853 ± 0.0042
AGAATTGGGT,switch fluorescence ratio,0.9964 ± 0.0014
TGTCAGGAAA,switch fluorescence ratio,0.9717 ± 0.0065
GGTAGAGTTG,switch fluorescence ratio,0.9758 ± 0.0062
GCTCTTAAGG,switch fluorescence ratio,0.982 ± 0.051
TGGCGTAGTT,switch fluorescence ratio,0.991 ± 0.037
ACTGCTACGA,switch fluorescence ratio,1.36 ± 0.018
GCCCGTTTCG,switch fluorescence ratio,0.9989 ± 0.0082
AAAGGGGTTA,switch fluorescence ratio,1 ± 0.024
TTGTGGGTTA,switch fluorescence ratio,0.96 ± 0.012
AATGTAATAA,switch fluorescence ratio,1.05 ± 0.084
GCTCAATTGA,switch fluorescence ratio,1.004 ± 0.01
TCAAACTTTA,switch fluorescence ratio,1.03 ± 0.025
GGGTATCAG,switch fluorescence ratio,0.955 ± 0.03
AAGTCCGGCA,switch fluorescence ratio,1 ± 0.037
TAGATAATGG,switch fluorescence ratio,1.02 ± 0.014
CTTTTTAGGC,switch fluorescence ratio,1 ± 0.043
ATGGATTTAC,switch fluorescence ratio,1.06 ± 0.028
GCGGTACGCT,switch fluorescence ratio,1.08 ± 0.091
TTGGGGGGTT,switch fluorescence ratio,1.03 ± 0.066
GATTATTTGT,switch fluorescence ratio,1.03 ± 0.022
TATGAGGGCT,switch fluorescence ratio,1.04 ± 0.012
TTTGAGGGGT,switch fluorescence ratio,1.03 ± 0.065
GTTGGAGTTA,switch fluorescence ratio,0.976 ± 0.023
GCTTCTCTTA,switch fluorescence ratio,0.974 ± 0.013
AAATTTATAA,switch fluorescence ratio,0.984 ± 0.044
CAGTTGGGGT,switch fluorescence ratio,0.997 ± 0.022
TTAGGTATCT,switch fluorescence ratio,1.01 ± 0.0095
CGTTGATGTC,switch fluorescence ratio,1.01 ± 0.13
TTACCAGTTG,switch fluorescence ratio,1.04 ± 0.031
CGGCTTATTC,switch fluorescence ratio,1.04 ± 0.015
AGTTTAGGTA,switch fluorescence ratio,1.01 ± 0.052
GCGGCCTTGT,switch fluorescence ratio,1.04 ± 0.011
AATTTGTCAT,switch fluorescence ratio,0.972 ± 0.045
AGTGAGTCGT,switch fluorescence ratio,0.961 ± 0.035
TTTCGGCCAA,switch fluorescence ratio,1.62 ± 0.76
TAGCCTTAGA,switch fluorescence ratio,0.983 ± 0.02
CCTGGGGCTA,switch fluorescence ratio,1.25 ± 0.021
ATGTTGTCAG,switch fluorescence ratio,0.987 ± 0.027
TAGGGATGGT,switch fluorescence ratio,0.979 ± 0.022
CTGTATTTGT,switch fluorescence ratio,1.03 ± 0.019
TGGATAAGGT,switch fluorescence ratio,1.05 ± 0.13
ATTAAAAAAG,switch fluorescence ratio,0.985 ± 0.028
GCAGTACTTT,switch fluorescence ratio,1.5 ± 0.12
GATACCTATG,switch fluorescence ratio,1.03 ± 0.027
GGTCCGTTTC,switch fluorescence ratio,1.01 ± 0.056
GCTAGGGGTT,switch fluorescence ratio,1.13 ± 0.25
GTCGAAGAG,switch fluorescence ratio,0.987 ± 0.016
TGTTACTAGC,switch fluorescence ratio,1.03 ± 0.0034
CATCTAAAGA,switch fluorescence ratio,1.005 ± 0.0067
GCACGCTAGG,switch fluorescence ratio,1.07 ± 0.041
CAATACCTAT,switch fluorescence ratio,1.05 ± 0.022
TGCGTATATG,switch fluorescence ratio,1.005 ± 0.0085
CCCGTATACT,switch fluorescence ratio,3.22 ± 1.6
TTACTTGGCC,switch fluorescence ratio,0.9818 ± 0.0021
CAGATCCGGG,switch fluorescence ratio,1 ± 0.024
CGCCCTTGGC,switch fluorescence ratio,1.07 ± 0.036
TCGTCGTAGG,switch fluorescence ratio,1.01 ± 0.03
GCCGGCGCAC,switch fluorescence ratio,1.026 ± 0.0057
CAAAAGGGGA,switch fluorescence ratio,0.984 ± 0.04
AGGAGTTGGA,switch fluorescence ratio,0.987 ± 0.013
TCTTGCAAGG,switch fluorescence ratio,1.11 ± 0.17
TTAGTCGACC,switch fluorescence ratio,0.9919 ± 0.0016
CGGGGTCGCC,switch fluorescence ratio,0.984 ± 0.021
TGGTTAAGGG,switch fluorescence ratio,1 ± 0.041
CTGCCCTATT,switch fluorescence ratio,1 ± 0.023
